Source: the supplement of paper PMC9170038

Each sequence was assayed on MS2 coat protein (assay: apparent KD of MS2 coat protein, switch OFF state (with FMN for OFF switches, without FMN for ON switches); designed switch direction (-1 OFF switch, 1 ON switch): -1; higher = weaker reporter binding). Settings: FMN input: 0 or 200 uM; Eterna round: R93 (includes R88 designs).
In short: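 Apparent KD was obtained for each design as the median of normalised binding-curve fits over its clusters. RNA switches transcribed on-chip from Illumina sequencing clusters were titrated with SNAP-549-labelled MS2 coat protein (twofold steps, 0.7 or 1.5 nM to 3 µM) in 100 mM Tris-HCl pH 7.5, 80 mM KCl, 4 mM MgCl2, without or with constant ligand.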

In order of falling “apparent KD of MS2 coat protein” value:
1. AAAGGAUCAGGAUAUGCGUGGAAAAAGUGUAUUCAAAAAAAACAUGAGGAUCACCCAUGUAGAAGGGAUCCAAA [Normal (20/19)]  546 nM
2. AACAGUACAGGAUAUACAUGAGGAUCACCCAUGUAGGGAUAAAGUGGCGUACCACAAAGUAGAAGGGUACUGGA [Moding Maslow revisited (73) 4]  142 nM
3. AGCUAGUCAGGAUAUACGAACAUGUCAAAAGACGUGAAGGGACAUGAGGAUCACCCAUGUAGAAGGGACUAGCA [WEB mod]  138 nM
4. AAAACGUCAGGAUAUACAGAAGAGAUCACAAAAAAAAAAAAACAUGAGGAUCACCCAUGUAGAAGGGACAAAAA [Ex2 Malc#2]  115 nM
5. CUCUUGUGAGGAUAUGAAAGAAAAGAAGAGAAAGAAAAGAAUCAGAAGGCACAUGAGGAUCACCCAUGUAAGAA [EteRNA is fun!]  106 nM
6. AAGAGUAGAGGAUAUACGGGAAAAGAGUCGAAAGACUCAAAACAUGAGGAUCACCCAUGUAGAAGGCUACUCAA [Hyphema Seclusion Mod 62% 6]  102 nM
7. AAAAAUGGAGGAUAUACAUGAGGAUCACCCAUGUGUAAAAAAAAUUACACAAAAGAAAGUAGAAGGCCAUAAAA [Ex 3 Warm]  102 nM
8. UCGAUGUCAGGAUAUGUGUAAAGAAUAAAACAAAUAACAACACAGAAGGGACAUGAGGAUCACCCAUGUUACGA [May 42]  86.2 nM
9. AACAGUACAGGAUAUACAUGAGGAUCACCCAUGUGAAAAUUAAGUGGCGUACCACAAUGUAGAAGGGUACUGGA [Moding Maslow Revisited (73) 24]  83.7 nM
10. AAGGGACAUGAGGAUCACCCAUGUCAGGAUAUGCUAUGGAAAUAAAAAAUAAAACAUAGCAGAAGGGACAAAAA [Mat - Exclusion 1 - Eli mod - D33]  67.6 nM
11. AGAAUACAUGAGGAUCACCCAUGUGAGGAUAUCAGAAGAAAAAGAAAAGAAAAGAAACUGAGAAGGCACAAAAG [EX 1 May 15]  66.1 nM
12. AAAAAACAUGAGGAUCACCCAUGUGAGGAUAUGAUGCGAAUAAAGAAAGAAGAAAGCAUCAGAAGGCACACCAA [58%, Disencluded 3, 1]  52 nM
13. AAACCACAUGAGGAUCACCCAUGUCAGGAUAUGCUAUGGAAAAAUAAAAUAAAACAUAGCAGAAGGGACAAAAA [Mat - Exclusion 1 - Eli mod - D34]  52 nM
14. AUAAUGAGAGGAUAUACAUGAGGAUCACCCAUGUAAUUAACACGGCGAGCACCAAUACGUAGAAGGCUCAUUUA [JR_Exc003+Sub602]  49.9 nM
15. AAAAAUGGAGGAUAUACAUGAGGAUCACCCAUGUUAGAACAAAAAAAAGGGAAAGAAAGUAGAAGGCCAUAAAA [Ex 3 May 25]  49.1 nM
16. AAGGGACAUGAGGAUCACCCAUGUCAGGAUAUGCUAUGGAAAAUAAAAAUAAAACAUAGCAGAAGGGAUAAAAA [Denovo 3]  45.4 nM
17. AAGAAUGCAGGAUAUACAUGAAAGAAAGAAAAGAAAAGAAAACAUGAGGAUCACCCAUGUAGAAGGGCAUAGAA [EteRNA is fun!]  44.1 nM
18. AAAAAACAUGAGGAUCACCCAUGUGAGGAUAUGCGAAAAUAAAAUAAAAUAAAUAAAAGCAGAAGGCACAAAAA [Mat - Exclusion 1 - Eli mod - D59]  43.9 nM
19. AAAAAGGUAGGAUAUACAUGAGGAUCACCCAUGUAAAUAAAUGGAGAAAAAAACAAUUGUAGAAGGGCCAAAAA [Ex3 Malc#8]  43.1 nM
20. CUCUAGUCAGGAUAUGGAAGAAAAGAAGAGAAAGAAAAGAACCAGAAGGGACAUGAGGAUCACCCAUGUAAGAA [EteRNA is fun!]  41.8 nM
21. AAAAGGUGAGGAUAUACGAAAAAAAAAAAAAAAAAAAAAAAGUAGAAGGCACAUGAGGAUCACCCAUGUAAAAA [LROPPY Exclusion 4 - v01_deltaG=2.54]  41.3 nM
22. AAAAGGGCAGGAUAUGCGUACUCACGGAAAAACUGGAUGGUACAUGAGGAUCACCCAUGUAGAAGGGCUAAAAA [Dora Explored 17 - Jieux - Exclusion 2]  40.9 nM
23. CCACAGGUAGGAUAUGCUGGGUGGGAUAAAUAAUUCCUGUGACAUGAGGAUCACCCAUGUAGAAGGACCAAAAG [Rixela]  40.1 nM
24. AAGAAGUGAGGAUAUACAUGAGGAUCACCCAUGUAAAGAAGAAGAGGAGAGAAUAAAGGUAGAAGGCACAAGAA [JR_Exclusion3_Sub4]  39.6 nM
25. AAGAAGUCAGGAUAUGCUAAAGAAAUGAAAAGAAAGAAAGAACAUGAGGAUCACCCAUGUAGAAGGGACAAGAA [Dedumose I]  38.3 nM
26. AAAAAACAUGAGGAUCACCCAUGUAAGGAUAUGCAAAAUAAAAGAAAUAAAAAGAAAAGCAGAAGGUACAUUAA [JL wbt mod 9]  37.9 nM
27. AGAAAGUCAGGAUAUACGAACAAGAAAAAAGACGAGAACGGACAUGAGGAUCACCCAUGUAGAAGGGACAAGAA [Diamond 13]  36.3 nM
28. GGGCCACAUGAGGAUCACCCAUGUAAGGAUAUGCUAGGGAUGGAAAAAAUUACGCAAAGCAGAAGGUACUAAAG [Janelle Amethyst 18 Mod 9 - Jieux - Exclusion 1]  35.5 nM
29. AAAAAGUGAGGAUAUGGUAAAAAAAAAAAAAAAAAAAAAAUCCAGAAGGCACAUGAGGAUCACCCAUGUAAAAA [Jolly Cotton - Jieux - Exclusion 4]  29.7 nM
30. AAGAAGUGAGGAUAUGUCUGUGCGAAAAAAAAAAAGUGCAGACAGAAGGCACAUGAGGAUCACCCAUGUGGAAA [Florian 65% 5]  29.1 nM
31. AAAACACAUGAGGAUCACCCAUGUGAGGAUAUGCUAUGGAAAUAAAAAAUAAAACAUAGCAGAAGGCGCAGGAA [Mat - Exclusion 1 - Eli mod - D47]  29.1 nM
32. ACCACACAUGAGGAUCACCCAUGUGAGGAUAUCUAGAAAACCUCAUGUAAAAAAAUCUAGAGAAGGCAUAUGAA [Design 93: Pseudoknot C]  28.4 nM
33. AGGAAACAUGAGGAUCACCCAUGUCAGGAUAUAGAAAAGAAAAGAAAAGAAAGAAGAACUAGAAGGGACAAGAA [Scorpion I]  26.3 nM
34. AAGAAAGCAGGAUAUACAUGAGGAUCACCCAUGUAAAAGAAAGAAAGGGAAAAGAAAAGUAGAAGGGCUAAGAA [Usermaatre-setepenre Pami]  26.1 nM
35. AAAAAACAUGAGGAUCACCCAUGUGAGGAUAUCGGAAAAGGAAAAAUAAAAAAGAAGACGAGAAGGCACACCAA [Mat - Exclusion 1 - Eli mod - D74]  24.6 nM
36. AAUUAGGUAGGAUAUACAUGAGGAUCACCCAUGUGGAAAAAAAACUACGAAAAAGAAUGUAGAAGGACCUAAAA [Ex 3 Frozen]  21.9 nM
37. AACUGACAUGAGGAUCACCCAUGUCAGGAUAUGACUUGAAAAAUAAAAUAAAAACAUGUCAGAAGGGACAUGGG [Design 54 :P Sub-opt H]  18.9 nM
38. AUAGGCCUAGGAUAUACAUGAGGAUCACCCAUGUAAACAGAUAGAUCAAGGUAAACGAGUAGAAGGAGGAAUAA [JR_Exc003_Sub209]  17.8 nM
39. AAAGGACGAGGAUAUACAUGAGGAUCACCCAUGUAAAAAACAUAAUAAAAGAAUAUAUGUAGAAGGCGUCCAAA [Ruby 59]  17.8 nM
40. AAUAACAGAGGAUAUGCAAAAAUAAGCGGAAACGCAAGAAAACAUGAGGAUCACCCAUGUAGAAGGCUGGAUAA [Tetraloop hairpin BlockHead Variations]  16.7 nM
41. AGGAAACAUGAGGAUCACCCAUGUCAGGAUAUAGGAAAGAAAAGAAAAGAAAGAAGAAUUAGAAGGGACAAGAA [King Scorpion]  16.5 nM
42. GGGUAGUCAGGAUAUACAAACAUGUCAAAAGACGUGAAAAAACAUGAGGAUCACCCAUGUAGAAGGGACUACCC [Mat - Exclusion 2 - JL mod - D20]  15 nM
43. AGCUAGUCAGGAUAUACGAACAUGUCAAAAGACGUGAAUAAACAUGAGGAUCACCCAUGUAGAAGGGACUAGCA [Mat - Exclusion 2 - JL-Eli mod - D53]  14.8 nM
44. AAGAAAGGAGGAUAUACAAAAUAAAAGAAAAGAAAGAAAGAACAUGAGGAUCACCCAUGUAGAAGGCCUAAGAA [Merhotepre Sobekhotep V]  14.4 nM
